{
  "source": "patent US20110009361A1",
  "data": [
    {"biological_target": "IL-13 receptor (IL-4Rα/IL-13Rα1) on TF-1 cells (human) (UniProt P78552)", "sequence (P78552 22-427, chain 1 of 2)": "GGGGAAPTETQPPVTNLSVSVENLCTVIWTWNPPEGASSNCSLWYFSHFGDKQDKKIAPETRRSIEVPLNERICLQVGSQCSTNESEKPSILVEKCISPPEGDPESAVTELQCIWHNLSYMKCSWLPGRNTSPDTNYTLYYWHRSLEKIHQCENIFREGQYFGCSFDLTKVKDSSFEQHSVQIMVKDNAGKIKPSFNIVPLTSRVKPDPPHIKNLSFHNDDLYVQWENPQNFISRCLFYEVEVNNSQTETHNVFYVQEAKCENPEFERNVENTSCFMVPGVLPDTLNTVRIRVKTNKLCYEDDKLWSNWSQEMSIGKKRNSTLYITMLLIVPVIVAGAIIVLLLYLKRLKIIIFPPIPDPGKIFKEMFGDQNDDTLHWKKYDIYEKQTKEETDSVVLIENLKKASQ", "sequence (P24394 26-825, chain 2 of 2, further chain)": "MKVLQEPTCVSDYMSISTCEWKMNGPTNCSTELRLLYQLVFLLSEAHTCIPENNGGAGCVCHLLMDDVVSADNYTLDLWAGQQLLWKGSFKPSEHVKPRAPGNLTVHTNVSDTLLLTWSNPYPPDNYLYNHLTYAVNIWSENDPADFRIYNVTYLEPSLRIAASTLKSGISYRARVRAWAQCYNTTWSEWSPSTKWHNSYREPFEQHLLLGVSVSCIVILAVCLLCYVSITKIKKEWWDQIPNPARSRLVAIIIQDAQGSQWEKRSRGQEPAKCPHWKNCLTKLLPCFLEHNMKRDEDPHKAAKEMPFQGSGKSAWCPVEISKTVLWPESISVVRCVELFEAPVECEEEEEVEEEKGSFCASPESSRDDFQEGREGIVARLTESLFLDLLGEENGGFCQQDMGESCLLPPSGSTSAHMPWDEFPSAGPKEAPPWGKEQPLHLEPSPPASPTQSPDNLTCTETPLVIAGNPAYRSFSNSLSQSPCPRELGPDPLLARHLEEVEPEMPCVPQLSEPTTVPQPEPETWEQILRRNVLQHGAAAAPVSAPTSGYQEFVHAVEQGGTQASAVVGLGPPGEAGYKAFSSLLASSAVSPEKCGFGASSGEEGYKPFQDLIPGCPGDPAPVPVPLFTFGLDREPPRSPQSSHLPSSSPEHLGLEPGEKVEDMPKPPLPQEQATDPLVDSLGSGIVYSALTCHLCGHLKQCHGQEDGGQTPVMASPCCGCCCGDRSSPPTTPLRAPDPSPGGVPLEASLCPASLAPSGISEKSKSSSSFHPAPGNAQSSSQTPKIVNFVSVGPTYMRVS", "assay": "cell-based or functional assay", "units": {"Concentration of IL-13 required for 50% TF-1 cell proliferation (ED50, ave)": "ng/mL"}, "values": [
      {"substance": "IL-13Q111 K104A (from UniProt P35225 35-146) (ligand)", "Concentration of IL-13 required for 50% TF-1 cell proliferation (ED50, ave)": 46.2},
      {"substance": "IL-13Q111 K105A (from UniProt P35225 35-146) (ligand)", "Concentration of IL-13 required for 50% TF-1 cell proliferation (ED50, ave)": 22.6},
      {"substance": "human IL-13 with glutamine at position 111 (IL-13Q111) (from UniProt P35225 35-146) (ligand)", "Concentration of IL-13 required for 50% TF-1 cell proliferation (ED50, ave)": 1.26},
      {"substance": "IL-13Q111 R108A (from UniProt P35225 35-146) (ligand)", "Concentration of IL-13 required for 50% TF-1 cell proliferation (ED50, ave)": 3.2},
      {"substance": "wild type human IL-13 with arginine in the 111 position (from UniProt P35225 35-146) (ligand)", "Concentration of IL-13 required for 50% TF-1 cell proliferation (ED50, ave)": 1.2},
      {"substance": "IL-13Q111 H102A (from UniProt P35225 35-146) (ligand)", "Concentration of IL-13 required for 50% TF-1 cell proliferation (ED50, ave)": 5.31},
      {"substance": "IL-13Q111 K97A (from UniProt P35225 35-146) (ligand)", "Concentration of IL-13 required for 50% TF-1 cell proliferation (ED50, ave)": 1.33},
      {"substance": "IL-13Q111 K25A (from UniProt P35225 35-146) (ligand)", "Concentration of IL-13 required for 50% TF-1 cell proliferation (ED50, ave)": 2.64}
    ]}
  ]
}
